Source: patent US20200002432A1, “ANTI-CD98 ANTIBODIES AND ANTIBODY DRUG CONJUGATES” (AbbVie Inc., priority 2016, published 2020)
Where a chain is given by its changes, count along the chain named.

B1: huAb101: humanized framework engineered anti-CD98 antibody; heavy chain variable SEQ ID NO: 106, light chain variable SEQ ID NO: 107 (antibody, V domains shown)
VH: EVQLVESGGGLVKPGGSLRLSCATSGFTFIDYYMSWVRQAPGKGLEWLGFIRNKANRYTTEYSASVKGRFTISRDNSKSILYLQMNSLKTEDTAVYYCTRDRPAWFVYWGQGTLVTVSS
VL: DIVMTQTPLSLPVTPGEPASISCKSSQSLLYSSNQKNYLAWYLQKPGQSPQLLIYWASTRESGVPDRFSGSGSGTDFTLKISRVEAEDVGVYYCQQYYSYPYTFGGGTKVEIK
B2: huAb103: humanized framework engineered anti-CD98 antibody; heavy chain variable SEQ ID NO: 109, light chain variable SEQ ID NO: 107 (antibody, V domains shown)
VH: B1 VH with N56Y, R57G
VL: B1 VL
B3: huAb105: humanized framework engineered anti-CD98 antibody; heavy chain variable SEQ ID NO: 111, light chain variable SEQ ID NO: 112 (antibody, V domains shown)
VH: EVQLVESGGGLVQPGGSLRLSCAASGFTFSDYTMAWVRQAPGKGLEWVATIIYSGRGTYYRDAVKGRFTISRDNAKNTLYLQMNSLRAEDTAVYYCARQSDHTYYYWGYFDYWGQGTMVTVSS
VL: B1 VL with S22N, Y31F, S33G, E61Q, V91I, S99D, Y100V, G106Q, V110L
B4: huAb107: humanized framework engineered anti-CD98 antibody; heavy chain variable SEQ ID NO: 114, light chain variable SEQ ID NO: 112 (antibody, V domains shown)
VH: B3 VH with H102D
VL: B1 VL with S22N, Y31F, S33G, E61Q, V91I, S99D, Y100V, G106Q, V110L
B5: huAb109: humanized framework engineered anti-CD98 antibody; heavy chain variable SEQ ID NO: 116, light chain variable SEQ ID NO: 117 (antibody, V domains shown)
VH: B3 VH with S54D, G55A, H102D
VL: B1 VL with S22N, Y31F, S33G, E61Q, V91I, Y100S, G106Q, V110L
B6: Ab13 (antibody, V domains shown)
VH: EVKLQQSGDELVRPGASVKISCKASGYTFTSYSMHWVKERPGQGLEWIGAIFPIIGTTEYNQKFKGKATLTADKSSNTANMELSRLTSEDSAVYYCARVYLSYFDYWGQGVMVTVSS
VL: DIQMTQSPSFLSASVGDRVTINCKASQNINKYLDWYQRKHGEAPKLLIYNTNNLQTGIPSRFSGSGSGTDYTLTISSLQPEDVATYFCLQHSSRYTFGAGTKLELK
notes: also called anti-CD98 hybridoma mAb Ab13

Tests used:
[1] = test system: cynomolgus monkey CD98 ECD (cyCD98 ECD); assay: Biacore surface plasmon resonance binding kinetics, anti-Fc capture; settings: framework re-engineered mAbs, Table 24
Procedure: (§1) The binding kinetics of these purified mouse and rat monoclonal anti-CD98 antibodies for purified recombinant CD98 protein (extracellular domain, ECD) were determined by surface plasmon resonance-based measurements made on Biacore T100/T200 instruments (GE Healthcare, Piscataway, N.J.) at 25° C. using an anti-Fc capture assay approach. Binding kinetic measurements were made in the assay buffer HBS-EP+: 10 mM Hepes, pH 7.4, 150 mM NaCl, 3 mM EDTA, 0.05% Tween 20). For example, approximately 8000 RU of anti-Fc (species specific) polyclonal antibody (Thermo Fisher Scientific Inc., Rockford, Ill.) diluted in 10 mM sodium acetate (pH 4.5) was directly immobilized across a CM5 research grade biosensor chip using a standard amine coupling kit according to manufacturer's instructions and procedures at 25 μg/ml. Unreacted moieties on the biosensor surface were blocked with ethanolamine. The test antibody to be captured as a ligand was diluted in running buffer to ˜0.5 μg/mL and injected over anti-Fc surface at a flow rate of 10 μL/min. CD98 binding and dissociation were observed under a continuous flow rate of 80 μL/min. Human and cynomolgus monkey CD98 ECDs, both with a C-terminal His-tag, are used for this study (Table 3). After each cycle the anti-Fc capture surface was regenerated using 10 mM Glycine-HCl, pH 1.5. During the assay, all measurements were referenced against the capture surface alone (i.e., with no captured test antibody) and buffer-only injections (no antigen) were used for double referencing. For kinetic analysis, rate equations derived from the 1:1 Langmuir binding model were fitted simultaneously, globally and with mass transfer term included to multiple referenced antigen binding curves using Biacore T100/T200 Evaluation software.
(§2) The in vitro binding activities of the recombinant anti-CD98 chimeric mAbs were measured against both recombinant CD98 extracellular domain proteins (ECDs) and CD98-expressing cells. Briefly, binding kinetics of anti-CD98 chimera mAbs for human and cynomolgus CD98 ECDs were determined by surface plasmon resonance-based measurements as described in Example 4. Table 10 reported the association and dissociation rate constants for CD98 binding, ka (M^−1s^−1) and […], and the equilibrium dissociation constant KD (M) of the interaction between antibodies and the target antigen. Binding of anti-CD98 chimera mAbs for CD98 on cell surface was evaluated by flow cytometry against CHO-K1 cell line stably transfected to express human CD98 and 3T12 cell line stably transfected to express cynomolgus monkey CD98. Data was analyzed using Graphpad Prism software and EC50 values were reported as the concentration of antibody to achieve 50% of maximal binding to CD98-expressing cells (Table 10).
(§3) The binding kinetics of the recombinant anti-CD98 chimeric antibodies for purified recombinant CD98 protein (extracellular domain. ECD) were determined by surface plasmon resonance-based measurements, as described in the Example 4.

[2] = target: T1, human CD98 ECD (huCD98 ECD) (Homo sapiens, UniProt P08195); assay: as above; settings: framework re-engineered mAbs, Table 24
T1 construct: His6 (with AAA linker) (C)
T1 sequence (P08195 with tags, fused parts or gaps): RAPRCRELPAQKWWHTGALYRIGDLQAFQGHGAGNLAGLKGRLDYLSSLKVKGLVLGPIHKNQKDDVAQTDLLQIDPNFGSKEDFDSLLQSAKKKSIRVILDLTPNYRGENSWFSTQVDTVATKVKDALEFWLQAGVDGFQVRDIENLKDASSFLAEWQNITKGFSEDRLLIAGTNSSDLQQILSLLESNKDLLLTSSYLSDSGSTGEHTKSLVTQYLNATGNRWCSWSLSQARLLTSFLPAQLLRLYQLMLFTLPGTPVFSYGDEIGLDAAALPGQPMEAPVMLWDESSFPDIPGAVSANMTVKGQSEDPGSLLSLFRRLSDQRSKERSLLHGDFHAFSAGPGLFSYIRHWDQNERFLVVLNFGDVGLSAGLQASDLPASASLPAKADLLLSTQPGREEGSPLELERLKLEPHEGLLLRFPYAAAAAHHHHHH
Procedure: as §1, §2, §3

human CD98 = target: T2, human CD98 (Homo sapiens, UniProt P08195); assay: Binding of humanized anti-CD98 antibodies to human CD98; settings: humanized variants of huAb3/huAb15 and framework engineered antibodies
T2 sequence (P08195 1-630 isoform P08195-1): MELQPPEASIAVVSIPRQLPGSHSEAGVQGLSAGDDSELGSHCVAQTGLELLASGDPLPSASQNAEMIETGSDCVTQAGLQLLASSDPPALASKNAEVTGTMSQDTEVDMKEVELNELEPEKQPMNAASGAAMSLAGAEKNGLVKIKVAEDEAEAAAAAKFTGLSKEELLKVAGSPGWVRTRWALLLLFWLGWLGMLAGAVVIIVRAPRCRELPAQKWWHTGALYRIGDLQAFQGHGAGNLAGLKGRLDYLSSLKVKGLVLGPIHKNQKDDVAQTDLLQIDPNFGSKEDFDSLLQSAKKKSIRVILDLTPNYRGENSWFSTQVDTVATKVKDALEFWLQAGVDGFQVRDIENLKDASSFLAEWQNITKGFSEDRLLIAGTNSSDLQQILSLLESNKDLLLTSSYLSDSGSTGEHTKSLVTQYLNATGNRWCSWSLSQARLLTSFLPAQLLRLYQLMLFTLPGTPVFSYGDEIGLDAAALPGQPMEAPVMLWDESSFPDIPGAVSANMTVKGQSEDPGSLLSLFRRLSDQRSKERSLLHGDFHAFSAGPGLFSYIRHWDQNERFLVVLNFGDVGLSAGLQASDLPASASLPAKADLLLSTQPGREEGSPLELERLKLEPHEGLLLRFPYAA

[3] = target: T3, Cynomolgus monkey CD98 ECD with C-terminal His-tag (cynomolgus monkey, UniProt P08195 105-529 (human entry)); assay: SPR (Biacore), mAb captured on anti-Fc, CD98 ECD as analyte
T3 construct: also called cyCD98 ECD; recombinant cynomolgus monkey CD98 extracellular domain
T3 chain: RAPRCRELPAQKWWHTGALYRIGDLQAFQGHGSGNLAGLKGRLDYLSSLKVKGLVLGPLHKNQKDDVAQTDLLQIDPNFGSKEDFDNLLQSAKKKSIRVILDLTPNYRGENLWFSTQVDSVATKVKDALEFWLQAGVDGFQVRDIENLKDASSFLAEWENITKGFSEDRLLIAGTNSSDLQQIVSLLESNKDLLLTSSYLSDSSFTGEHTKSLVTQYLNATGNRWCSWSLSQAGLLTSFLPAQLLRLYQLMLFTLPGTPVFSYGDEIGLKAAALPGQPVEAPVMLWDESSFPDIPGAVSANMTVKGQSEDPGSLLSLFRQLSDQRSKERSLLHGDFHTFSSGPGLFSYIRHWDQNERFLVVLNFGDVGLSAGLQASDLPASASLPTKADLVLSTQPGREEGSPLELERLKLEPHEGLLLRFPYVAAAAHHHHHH
Procedure: as §1

[4] = target: T4, Human CD98 ECD with C-terminal His-tag (human, UniProt P08195 105-529); assay: as above
T4 construct: also called huCD98 ECD; recombinant human CD98 extracellular domain
T4 sequence: T1 sequence (P08195 with tags, fused parts or gaps)
Procedure: as §1

Molecule	ka, cynoCD98 ECD [1] [M⁻¹ s⁻¹]	kd, cynoCD98 ECD [1] [s⁻¹]	ka, huCD98 ECD [2] [M⁻¹ s⁻¹]	kd, huCD98 ECD [2] [s⁻¹]	binding to human CD98 (human CD98)	Kd [3] [nM]	koff [3] [s⁻¹]	kon [3] [M⁻¹ s⁻¹]	Kd [4] [nM]	koff [4] [s⁻¹]	kon [4] [M⁻¹ s⁻¹]
B1	30000	0.00067	290000	0.0018	maintained binding to human CD98	–	–	–	–	–	–
B2	31000	0.00044	180000	0.00059	maintained binding to human CD98	–	–	–	–	–	–
B3	38000	5.3e-05	140000	2.4e-05	maintained binding to human CD98	–	–	–	–	–	–
B4	33000	8.7e-05	110000	3.8e-05	maintained binding to human CD98	–	–	–	–	–	–
B5	26000	0.00031	160000	0.00017	maintained binding to human CD98	–	–	–	–	–	–
B6	–	–	–	–	–	47	0.00088	19000	1.9	5.5e-05	29000
